Experimental data published in patent publication US12398178 (PARABILIS MEDICINES, dated 2025).
Positions of bridges follow the written chain, without caps; N, C: chain ends. No end group written: not given here. Linker 15a = not defined here; Linker 15b = not defined here; Linker 10 = not defined here; Linker 11 = not defined here; Linker 12 = not defined here; Linker 13 = not defined here; Linker 16 = not defined here; Linker 7 = not defined here

T1: full-length β-Catenin (UniProt P35222 2-781, limits assumed)
T1 construct: mature; also called beta-catenin; beta-Catenin
T1 sequence (looked up): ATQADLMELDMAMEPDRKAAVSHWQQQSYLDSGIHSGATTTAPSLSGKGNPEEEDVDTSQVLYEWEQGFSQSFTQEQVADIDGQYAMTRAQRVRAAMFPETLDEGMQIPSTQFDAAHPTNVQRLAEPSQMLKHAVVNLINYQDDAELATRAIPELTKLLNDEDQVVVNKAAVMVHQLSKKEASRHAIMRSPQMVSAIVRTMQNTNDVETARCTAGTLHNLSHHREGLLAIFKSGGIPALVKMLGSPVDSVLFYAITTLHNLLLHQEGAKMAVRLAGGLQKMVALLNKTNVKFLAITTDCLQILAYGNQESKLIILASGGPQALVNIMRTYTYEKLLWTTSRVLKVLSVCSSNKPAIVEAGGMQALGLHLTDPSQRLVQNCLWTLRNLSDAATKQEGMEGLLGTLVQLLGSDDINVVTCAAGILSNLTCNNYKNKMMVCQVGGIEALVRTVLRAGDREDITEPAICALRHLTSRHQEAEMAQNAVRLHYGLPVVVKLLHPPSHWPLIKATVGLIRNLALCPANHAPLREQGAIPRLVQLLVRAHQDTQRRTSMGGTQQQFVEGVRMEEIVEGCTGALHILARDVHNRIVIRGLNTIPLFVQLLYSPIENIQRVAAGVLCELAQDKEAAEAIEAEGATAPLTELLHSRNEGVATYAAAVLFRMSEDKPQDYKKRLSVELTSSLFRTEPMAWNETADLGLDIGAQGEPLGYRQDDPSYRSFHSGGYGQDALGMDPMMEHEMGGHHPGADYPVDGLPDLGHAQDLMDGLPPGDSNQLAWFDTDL


Biological target: T1, full-length β-Catenin
Experiment: competition fluorescence polarization vs FITC-Axin peptide probe on full-length beta-catenin
Method: Peptide assessment: In one assay for assessing binding to beta-catenin, peptide solutions were prepared in buffer (50 mM Tris pH 8.0, 250 mM NaCl, 2% glycerol, 0.5 mM EDTA, 0.02% w/v sodium azide) using a 3-fold serial dilution from 5 μM. Probe solution (15 nM full-length β-Catenin, 20 nM FITC labeled Axin peptide in buffer ([FAM-PEG1-RRWPR(S5)ILD(S5)HVRRVWR (SEQ ID NO: 44)] where the two S5 residues are stapled, as reported in: Proc Natl Acad Sci USA. 2012 Oct. 30; 109(44):17942-7)) was prepared and incubated for 5 minutes, then 40 μL per well plated in a black polystyrene 384-well plate (Corning). Equal volume of the titrated peptide was added to the plate and incubated protected from light for 15 minutes prior to read. Reads were performed on a Spectramax M5 (Molecular Devices) in duplicate.

Binder	EC50
ADPALWACEHAALICETQ (linker 8-15 via Linker 7 (inferred); reading uncertain, synthetic cysteine-stapled peptide) [Peptide ID 2, ADPALWACEHAALICETQ, staple type Linker 7]	2.8 µM
ADPATHRCEWAALHCELV (linker 8-15 via Linker 7 (inferred); reading uncertain, synthetic cysteine-stapled peptide) [Peptide ID 1, ADPATHRCEWAALHCELV, staple type Linker 7]	5.2 µM
ADPADWECEHAALICDAM (linker 8-15 via Linker 7 (inferred); reading uncertain, synthetic cysteine-stapled peptide) [Peptide ID 12, ADPADWECEHAALICDAM, staple type Linker 7]	0.815 µM
ADPALWACEHAALICETQ (linker 8-15 via Linker 13 (inferred); reading uncertain, synthetic cysteine-stapled peptide) [Peptide ID 43, ADPALWACEHAALICETQ, staple type Linker 13]	4.59 µM
ADPATHRCEWAALHCELV (linker 8-15 via Linker 12 (inferred); reading uncertain, synthetic cysteine-stapled peptide) [Peptide ID 33, ADPATHRCEWAALHCELV, staple type Linker 12]	5.35 µM
ADPAHAECVLDYHICQIW (linker 8-15 via Linker 7 (inferred); reading uncertain, synthetic cysteine-stapled peptide) [Peptide ID 5, ADPAHAECVLDYHICQIW, staple type Linker 7]	0.117 µM
ADPALWACEHAALICETQ (linker 8-15 via Linker 15b (inferred); reading uncertain, synthetic cysteine-stapled peptide) [Peptide ID 45, ADPALWACEHAALICETQ, staple type Linker 15b]	5.57 µM
ADPALWACEHAALICETQ (linker 8-15 via Linker 15a (inferred); reading uncertain, synthetic cysteine-stapled peptide) [Peptide ID 44, ADPALWACEHAALICETQ, staple type Linker 15a]	7.33 µM
ADPAYWLCEHAALICEVE (linker 8-15 via Linker 7 (inferred); reading uncertain, synthetic cysteine-stapled peptide) [Peptide ID 13, ADPAYWLCEHAALICEVE, staple type Linker 7]	0.456 µM
ADPALADCILAAHMCQLW (linker 8-15 via Linker 7 (inferred); reading uncertain, synthetic cysteine-stapled peptide) [Peptide ID 4, ADPALADCILAAHMCQLW, staple type Linker 7]	5.52 µM
ADPAEDECILNNHICRIW (linker 8-15 via Linker 7 (inferred); reading uncertain, synthetic cysteine-stapled peptide) [Peptide ID 7, ADPAEDECILNNHICRIW, staple type Linker 7]	0.014 µM
ADPALWACEHAALICETQ (linker 8-15 via Linker 11 (inferred); reading uncertain, synthetic cysteine-stapled peptide) [Peptide ID 41, ADPALWACEHAALICETQ, staple type Linker 11]	3.02 µM
ADPALWACEHAALICETQ (linker 8-15 via Linker 16 (inferred); reading uncertain, synthetic cysteine-stapled peptide) [Peptide ID 46, ADPALWACEHAALICETQ, staple type Linker 16]	5.82 µM
ADPAQWPCEHAALLCEIE (linker 8-15 via Linker 7 (inferred); reading uncertain, synthetic cysteine-stapled peptide) [Peptide ID 14, ADPAQWPCEHAALLCEIE, staple type Linker 7]	0.404 µM
ADPAQDHCILDTHICRIW (linker 8-15 via Linker 7 (inferred); reading uncertain, synthetic cysteine-stapled peptide) [Peptide ID 6, ADPAQDHCILDTHICRIW, staple type Linker 7]	0.047 µM
ADPATHRCEWAALHCELV (linker 8-15 via Linker 13 (inferred); reading uncertain, synthetic cysteine-stapled peptide) [Peptide ID 34, ADPATHRCEWAALHCELV, staple type Linker 13]	4.32 µM
ADPALWACEHAALICETQ (linker 8-15 via Linker 12 (inferred); reading uncertain, synthetic cysteine-stapled peptide) [Peptide ID 42, ADPALWACEHAALICETQ, staple type Linker 12]	4.52 µM
ADPATHRCEWAALHCELV (linker 8-15 via Linker 11 (inferred); reading uncertain, synthetic cysteine-stapled peptide) [Peptide ID 32, ADPATHRCEWAALHCELV, staple type Linker 11]	5.17 µM
ADPALWACEHAALICETQ (linker 8-15 via Linker 10 (inferred); reading uncertain, synthetic cysteine-stapled peptide) [Peptide ID 40, ADPALWACEHAALICETQ, staple type Linker 10]	9.55 µM
ADPAPWQCEHAALLCELE (linker 8-15 via Linker 7 (inferred); reading uncertain, synthetic cysteine-stapled peptide) [Peptide ID 11, ADPAPWQCEHAALLCELE, staple type Linker 7]	0.922 µM
ADPAEDECILAAHMCRWW (linker 8-15 via Linker 7 (inferred); reading uncertain, synthetic cysteine-stapled peptide) [Peptide ID 8, ADPAEDECILAAHMCRWW, staple type Linker 7]	0.255 µM
ADPAQWHCEHAALICELD (linker 8-15 via Linker 7 (inferred); reading uncertain, synthetic cysteine-stapled peptide) [Peptide ID 10, ADPAQWHCEHAALICELD, staple type Linker 7]	0.417 µM
